# Source: the supplement of paper PMC9170038
# Test system: MS2 coat protein
# Experiment: apparent KD of MS2 coat protein; designed switch direction (-1 OFF switch, 1 ON switch): -1; higher = weaker reporter binding
# Method in brief: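 Apparent KD, taken as the median over clusters for each design, was obtained by curve-fitting normalised cluster fluorescence. Designed RNA switches had been transcribed on Illumina chips by stalled E. coli RNA polymerase and titrated with SNAP-549-labelled MS2 coat protein, doubling from 0.7 or 1.5 nM to 3 µM.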
# [1] = input ligand: microRNA oligo, concentration not stated
Sequence,apparent KD of MS2 coat protein (input ligand: FMN 200 uM) [nM],apparent KD of MS2 coat protein [1] [nM],apparent KD of MS2 coat protein (input ligand: none) [nM]
"ACAUGAGGAUCACCCAUGUCUGGCUGGUCUGCUCCGGCUGUUGAGGAUAUAGUUCGGUGUUCGCGCUAGAAGGUGAGGGCUGGC [Aenatbe mod 37] (Eterna round: R96, puzzle: Exclusion NG 3)",32.2,23.1,35.6
"ACAUGAGGAUCACCCAUGUGAAAACAAUGGCUGACUUUGAGACAGGAUAUUCGUGCAUAUCAAACGAAGAAGGGUCAUUACUGG [Deportation 94 - Jieux - Exclusion NG 3] (Eterna round: R96, puzzle: Exclusion NG 3)",42.2,26.4,37.7
"ACAUGAGGAUCACCCAUGUGAAAAGAAUGGCUGACACAGAGAUAGGAUAUAUGUGCAUAUCUAACGUAGAAGGGUCAUGACUGG [Deportation 78 - Jieux - Exclusion NG 3] (Eterna round: R96, puzzle: Exclusion NG 3)",,26.5,
"ACAUGAGGAUCACCCAUGUGACAAUAAUGGCUGAUACAGAAACAGGAUAUUCGUGAAUAUCUAACGAAGAAGGGUUAUGACUGG [Deportation 68 - Jieux - Exclusion NG 3] (Eterna round: R96, puzzle: Exclusion NG 3)",36.4,41,44
"ACAUGAGGAUCACCCAUGUGACAAUAAUGGCUGAUACAGAGACAGGAUAUAGGUGCAUAUCUAACCUAGAAGGGUCAUGACUGG [Deportation 72 - Jieux - Exclusion NG 3] (Eterna round: R96, puzzle: Exclusion NG 3)",29.1,30.6,36.6
"ACAUGAGGAUCACCCAUGUGACAAUAAUGGCUGAUAUAGAAACAGGAUAUUCGUGAAUAUCUAACGAAGAAGGGUUAUGACUGG [Deportation 67 - Jieux - Exclusion NG 3] (Eterna round: R96, puzzle: Exclusion NG 3)",49,38.3,51.8
"ACAUGAGGAUCACCCAUGUGACCACAAUGGCUGAUGUAACAACAGGAUAUGCGUGAAUAUCUAACGCAGAAGGGUUUUGACUGG [Deportation 59 - Jieux - Exclusion NG 3] (Eterna round: R96, puzzle: Exclusion NG 3)",84.5,71.5,91.1
"ACAUGAGGAUCACCCAUGUGACCACAAUGGCUGAUGUAACGACAGGAUAUUCGUGAAUAUCUAACGAAGAAGGGUCAUGACUGG [Deportation 62 - Jieux - Exclusion NG 3] (Eterna round: R96, puzzle: Exclusion NG 3)",98.8,52.7,60.2
"ACAUGAGGAUCACCCAUGUGACCACGAUGGCUGAUGUAGACCUAGGAUAUGUGUGAAUAUCUAUCACAGAAGGAGGUUGACUGG [Deportation 51 - Jieux - Exclusion NG 3] (Eterna round: R96, puzzle: Exclusion NG 3)",44.4,34.3,42.7
"ACAUGAGGAUCACCCAUGUGACCACGAUGGCUGAUGUAGAGAUAGGAUAUGUGUGAAUAUCUAUCACAGAAGGAUCUUGACUGG [Deportation 53 - Jieux - Exclusion NG 3] (Eterna round: R96, puzzle: Exclusion NG 3)",25.2,22.4,28.5
"ACAUGAGGAUCACCCAUGUGCACGUAAUGGCUCAUGUAGAGUGAGGAUAUGUGUGACGAACGAGCACAGAAGGCACAAGACUGG [Deportation 13 - Jieux - Exclusion NG 3] (Eterna round: R96, puzzle: Exclusion NG 3)",116,67.3,97.4
"ACAUGAGGAUCACCCAUGUGCCCAUCUAGCACAUGUCCUCGCUAGGAUAUGUAGGCCUCGACGCCGCAGAAGGAGCUAAAAGAG [Raatlaan] (Eterna round: R96, puzzle: Exclusion NG 3)",129,44.6,64.5
"ACAUGAGGAUCACCCAUGUGCCCAUCUAGCACAUGUCCUCGCUAGGAUAUGUAGGCCUCGAGGCCGCAGAAGGAGCUAAAAGAG [Atgequa] (Eterna round: R96, puzzle: Exclusion NG 3)",453,82.8,127
"ACAUGAGGAUCACCCAUGUGGACGAAAAGGCUCAUGUAGAGUGAGGAUAUGUGAGACGAACGAGAACAGAAGGCACAAGACAGG [Deportation 5 - Jieux - Exclusion NG 3] (Eterna round: R96, puzzle: Exclusion NG 3)",17.4,22.3,20
"ACAUGAGGAUCACCCAUGUUAACGAAAAGGCUCAUGUAGAGUGAGGAUAUGUGAGACGAACGAGAACAGAAGGCACAAGACAGG [Deportation 2 - Jieux - Exclusion NG 3] (Eterna round: R96, puzzle: Exclusion NG 3)",24.2,15.2,22.3
"ACAUGAGGAUCACCCAUGUUUGGCUGGUUUUCUCCGGCUGUCGAGGAUAUAGUCCGGUAUCCGCGCUAGAAGGUGAGGGUUGGC [Aenatbe mod 4] (Eterna round: R96, puzzle: Exclusion NG 3)",22.5,14.2,22.8
"ACAUGAGGAUCACCCAUGUUUGUUGGGUACUCUUUUUACAGCAAGGAUAUGCAUGUUUUUUUUACGCAGAAGGUGCUGGACGUC [JR_ExcNG3_Sub068] (Eterna round: R96, puzzle: Exclusion NG 3)",381,163,653
"ACAUGAGGAUCACCCAUGUUUUUCGGGUACUCUUGAUACAGCAAGGAUAUGCAUUAUUUAUGUACGCAGAAGGUGCAUUACGUC [JR_ExcNG3_Sub064] (Eterna round: R96, puzzle: Exclusion NG 3)",104,67,71.9
"ACAUGAGGAUCACCCAUGUUUUUCGGGUACUCUUUUUACAGCAAGGAUAUGCAUUAUUUUUUUACGCAGAAGGUGCUUUACGUC [JR_ExcNG3_Sub066] (Eterna round: R96, puzzle: Exclusion NG 3)",,116,
"ACAUGUAAUGCAGGAUAUGGGACACAUGAGGAUCACCCAUGUGACCAUAUGUAAUGCUAAGAGUCUCAGAAGGGUAUGUACAUG [Ex NG2 #46] (Eterna round: R96, puzzle: Exclusion NG 2)",15.2,7.56,12.9
"ACAUGUAUUGCAGGAUAUGGGACACAUGAGGAUCACCCAUGUGACCAUAUGUAAUGCCACGGGUCUCAGAAGGGUAUGUACAUG [Ex NG2 #44] (Eterna round: R96, puzzle: Exclusion NG 2)",12.8,10.3,14.1
"ACAUGUAUUGCAGGAUAUGGGACACAUGAGGAUCACCCAUGUGACCAUAUGUAAUGCUAAGAGUCUCAGAAGGGUAUGUACAUG [Ex NG2 #45] (Eterna round: R96, puzzle: Exclusion NG 2)",10.7,8.59,11.4
"ACAUGUCAUCGAGGAUAUUGGACACAUGAGGAUCACCCAUGUACUCGGAGGCUCUACCAUGAGUUCGAGAAGGCGAUGUACAUG [Ex NG2 #76] (Eterna round: R96, puzzle: Exclusion NG 2)",651,316,365
"ACAUGUCAUCGAGGAUAUUGUACACAUGAGGAUCACCCAUGUACUCGGUUGCUCUAGCAUGCGUUCGAGAAGGCGAUGUACAUU [Ex NG2 #98] (Eterna round: R96, puzzle: Exclusion NG 2)",52,88.8,144
"ACAUGUCAUCGAGGAUAUUGUACACAUGAGGAUCACCCAUGUAUUCGGUUGCUCUCGCGUGAGUUCGAGAAGGCGAUGUACAUU [Ex NG2 #82] (Eterna round: R96, puzzle: Exclusion NG 2)",105,24.2,29.3
"ACAUGUCAUUGAGGAUAUUGCACACAUGAGGAUCACCCAUGUAUACGGAUGCUCUUCCGUGAGUUCGAGAAGGCGAUGUACAUU [Ex NG2 #90] (Eterna round: R96, puzzle: Exclusion NG 2)",71.3,38.6,60.7
"ACAUGUCAUUGAGGAUAUUGCACACAUGAGGAUCACCCAUGUAUACGGUUGCUCUUACGUGAGUUCGAGAAGGCGAUGUACAUU [Ex NG2 #88] (Eterna round: R96, puzzle: Exclusion NG 2)",153,123,181
"ACAUGUCUUGUAGGAUAUAGUUGACAUGAGGAUCACCCAUGUUGAUUCAUGUCUAUGGAAACGGACUAGAAGGACGAGAAUAUG [Ex NG2 #17] (Eterna round: R96, puzzle: Exclusion NG 2)",50.5,25.3,25.9
"ACAUGUUAUCCAUGAUAUCACAUGAGGAUCACCCAUGUUAUGGCGAUUUUGAGGUGUAAGUUUGUUGCUCGUCUUAU [JR_STOV1_Sub059] (Eterna round: R97, puzzle: Sensor, turn-off variant 1)",54.5,,65.3
"ACAUGUUGCGCAGGAUAUGAGACACAUGAGGAUCACCCAUGUGGCUACAUGUCAUACCAAGCGUCUCAGAAGGGUGUGAACAUG [Ex NG2 #34] (Eterna round: R96, puzzle: Exclusion NG 2)",18.7,11.7,18.1
